In patent US20240409638A1 (AVACTA LIFE SCIENCES, published 2024):

Assays:
[1] = target: T1, human serum albumin (HSA) (human, UniProt P02768 25-609); assay: HSA binding ELISA: HSA coated, bound AFFIMER detected with biotinylated anti-cystatin A antibody and streptavidin-HRP
T1 construct: The assays used bought HSA (Sigma #A37812 in the SPR work); also called HuSA
Experimental: Plates were washed and AFFIMER® polypeptides were detected using streptavidin-HRP for 30 min. After the last washing step, the TMB substrate was added for the development of the experiment and plates were read at 450 nm. The EC₅₀ was then calculated using the interpolated non-linear four-parameters standard curve.

[2] = target: T2, human PD-L1-Fc (R&D Systems) (human, UniProt Q9NZQ7 19-239); assay: SPR (Biacore 8K): human PD-L1-Fc amine-coupled on a CM5 chip, AFFIMER as analyte, 1:1 Langmuir fit
T2 construct: Bought reagent; also called huPD-L1-Fc; huPD-L1; not shown: Fc part of the bought fusion
T2 sequence (Q9NZQ7 19-239 limits assumed): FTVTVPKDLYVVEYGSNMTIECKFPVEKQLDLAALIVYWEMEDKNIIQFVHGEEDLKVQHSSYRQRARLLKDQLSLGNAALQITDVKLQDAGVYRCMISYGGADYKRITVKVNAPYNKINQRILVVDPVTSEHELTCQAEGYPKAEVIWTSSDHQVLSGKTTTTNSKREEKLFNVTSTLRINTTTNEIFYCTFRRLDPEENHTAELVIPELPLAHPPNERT

[3] = target: T2, human PD-L1-Fc (R&D Systems); assay: human PD-L1-Fc binding ELISA: huPD-L1-Fc coated, anti-cystatin A detection
[4] = target: T2, human PD-L1-Fc (R&D Systems); assay: huPD-L1-Fc binding ELISA
[5] = target: T3, PD-L1 on cells (NCI-H441 cells; aAPC PD-L1/CHO-K1 cells, Promega) (human, UniProt Q9NZQ7 19-290); assay: cell-based or functional assay
T3 sequence (Q9NZQ7 19-290): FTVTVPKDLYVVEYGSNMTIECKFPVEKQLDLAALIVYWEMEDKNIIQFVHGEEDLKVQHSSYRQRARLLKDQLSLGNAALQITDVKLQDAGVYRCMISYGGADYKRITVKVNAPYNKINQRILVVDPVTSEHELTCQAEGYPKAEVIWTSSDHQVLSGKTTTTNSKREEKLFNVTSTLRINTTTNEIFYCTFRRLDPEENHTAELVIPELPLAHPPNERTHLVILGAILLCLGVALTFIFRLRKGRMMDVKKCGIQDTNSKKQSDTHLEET

[6] = target: T2, human PD-L1-Fc (R&D Systems); assay: PD-L1/PD-1 competition ELISA (binding inhibition %): human PD-1-Fc coated, AFFIMER preincubated with huPD-L1-Fc at its EC80, bound PD-L1 detected; blocked ligand: human PD-1-Fc. The table column is headed 'EC50 (nM)'; the text calls the values IC50
Experimental: Plates were washed two times with washing buffer (PBS, Tween 20 0.1%) with a plate washer and saturated with Casein 5% (Sigma) in PBS for 90 minutes at room temperature (25±1° C.). […] Plates were washed 3 times as described previously. […] Plates were washed 3 times as described previously and Streptavidin-HRP was added, and the plates were incubated for 30 minutes at room temperature (25±1° C.). Plates were washed a last time and the substrate (TMB; Pierce Thermo-Scientific) was added to the plate. After 10 minutes, the reaction was stopped using an acidic solution and the plates were read at absorbance 450-630 nm. The IC₅₀ was then calculated using the interpolated non-linear four-parameters standard curve.

[7] = target: T1, human serum albumin (HSA); assay: SPR (Biacore) kinetics: HSA immobilised on a CM5 chip, AFFIMER as analyte, pH 7.4
Experimental: (§1) For the HSA binding kinetic analysis, HSA (Sigma #A37812) was immobilized on a CM5 chip surface using amine coupling in 10 mM sodium acetate (pH 5.0) (Cytvia). […] The chip surface was regenerated with 3 mM NaOH for 20 seconds at a flow rate of 20 μl/min. The kinetic data was blank subtracted and fit to a 1:1 Langmuir binding model (BIAcore evaluation software; Cytiva).
(§2) Protein was produced from Escherichia coli and characterized as described in Example 1. […] Kinetic analysis was carried out as described in Example 2.

[8] = target: T1, human serum albumin (HSA); assay: SPR, Biacore, HSA on CM5, pH 7.4; HSA-18 monomer
Experimental: as §1, §2

[9] = target: T1, human serum albumin (HSA); assay: SPR, Biacore, HSA on CM5, pH 7.4; ILF XT format
Experimental: as §1, §2

[10] = target: T2, human PD-L1-Fc (R&D Systems); assay: SPR (Biacore) kinetics: human PD-L1-Fc immobilised on a CM5 chip, AFFIMER as analyte (column KD (pM), the same fit as the KD (M) column)
[11] = target: T2, human PD-L1-Fc (R&D Systems); assay: SPR (Biacore) kinetics: human PD-L1-Fc immobilised on a CM5 chip, AFFIMER as analyte
[12] = target: T2, human PD-L1-Fc (R&D Systems); assay: SPR (Biacore 8K): human PD-L1-Fc amine-coupled on a CM5 chip, AFFIMER as analyte
[13] = target: T1, human serum albumin (HSA); assay: SPR (Biacore): immobilized ligand HSA (Sigma # A3782), AFFIMER as analyte, pH 7.0 by the legend
Experimental: as §1

[14] = target: T1, human serum albumin (HSA); assay: SPR, Biacore, HSA amine-coupled on CM5; mammalian-produced format
Experimental: as §1

[15] = target: T1, human serum albumin (HSA); assay: HSA binding ELISA: HSA coated, anti-cystatin A detection
[16] = target: T4, murine serum albumin (MSA) (murine, UniProt P07724 25-608); assay: SPR, Biacore, MSA amine-coupled on CM5; mammalian-produced format
T4 construct: Bought reagent

[17] = target: T3, PD-L1 on cells (NCI-H441 cells; aAPC …); assay: cell-based or functional assay; remark: listed apart in the source
[18] = target: T4, murine serum albumin (MSA); assay: SPR (Biacore): immobilized ligand MSA (Sigma # A3559), AFFIMER as analyte, pH 7.0 by the legend

T1 sequence (P02768 25-609): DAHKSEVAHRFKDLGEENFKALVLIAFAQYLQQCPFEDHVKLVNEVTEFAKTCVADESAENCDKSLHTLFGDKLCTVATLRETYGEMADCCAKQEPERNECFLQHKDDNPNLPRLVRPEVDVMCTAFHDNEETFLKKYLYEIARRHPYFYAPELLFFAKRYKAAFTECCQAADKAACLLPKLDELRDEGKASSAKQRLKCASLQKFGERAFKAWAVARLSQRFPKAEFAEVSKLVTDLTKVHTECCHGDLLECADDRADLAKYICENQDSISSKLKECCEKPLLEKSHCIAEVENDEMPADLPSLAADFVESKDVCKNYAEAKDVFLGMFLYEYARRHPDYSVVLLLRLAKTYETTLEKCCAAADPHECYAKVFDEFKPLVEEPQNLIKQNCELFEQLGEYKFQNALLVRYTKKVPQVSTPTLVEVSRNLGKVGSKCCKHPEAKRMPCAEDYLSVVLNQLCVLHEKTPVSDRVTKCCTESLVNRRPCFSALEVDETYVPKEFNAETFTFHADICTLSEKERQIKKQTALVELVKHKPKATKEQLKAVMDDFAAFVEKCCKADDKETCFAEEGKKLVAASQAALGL

B1: Clone 80 (monomeric anti-PD-L1 AFFIMER® polypeptide) (designed binder)
chain: MIPGGLSEAKPATPEIQEIVDKVKPQLEEKTGETYGKLEAVQYKTQVVRRKHFPQWPGTNYYIKVRAGDNKYMHLKVFKSLDLQPREVFQEDLVLTGYQVDKNKDDELTGF
notes: Engineered Stefin A variant; also called anti-PD-L1 type I AFFIMER® polypeptide
With B1 the binding result [1] was “no binding”, the Kd [2] was 0.449 nM and the EC50 [3] was 0.21 nM. The EC50 [4] was 0.2 nM, the “half-maximal concentration of PD-1/PD-L1 blockade (% of inhibition, NFAT-luciferase reporter cells; IC50)” value [5] was 27.9 nM and the IC50 [6] was 1.63 nM.

B2: HSA-18 (anti-serum albumin AFFIMER® polypeptide, XT monomer) (designed binder)
chain: MIPRGLSEAKPATPEIQEIVDKVKPQLEEKTNETYGKLEAVQYKTQVLADWWQAKWPHSTNYYIKVRAGDNKYMHLKVFNGPYKVHQSSGGADRVLTGYQVDKNKDDELTGF
notes: also called HSA-18 monomer
With B2 the Kd [7] was 109 nM, the koff [7] was 0.0078 s⁻¹ and the kon [7] was 71400 M⁻¹ s⁻¹. For the same binder, the Kd [8] was 1.09 nM.

B3: Clone 80 XT62 (designed binder)
chain: MIPGGLSEAKPATPEIQEIVDKVKPQLEEKTGETYGKLEAVQYKTQVVRRKHFPQWPGTNYYIKVRAGDNKYMHLKVFKSLDLQPREVFQEDLVLTGYQVDKNKDDELTGFAEAAAKEAAAKEAAAKEAAAKEAAAKEAAAKMIPGGLSEAKPATPEIQEIVDKVKPQLEEKTGETYGKLEAVQYKTQVVRRKHFPQWPGTNYYIKVRAGDNKYMHLKVFKSLDLQPREVFQEDLVLTGYQVDKNKDDELTGFAEAAAKEAAAKEAAAKEAAAKEAAAKEAAAKMIPRGLSEAKPATPEIQEIVDKVKPQLEEKTNETYGKLEAVQYKTQVLADWWQAKWPHSTNYYIKVRAGDNKYMHLKVFNGPYKVHQSSGGADRVLTGYQVDKNKDDELTGF
notes: Clone 80 dimer with HSA-18 at the C-terminus; Made in E. coli; No tag is stated for this construct
For B3, the Kd [9] was 7.04 nM, the Kd [7] was 704 nM and the koff [7] was 0.00828 s⁻¹. It also gave a kon [7] of 11800 M⁻¹ s⁻¹, a Kd [10] of 0.11 nM and a Kd [11] of 0.109 nM. It also gave a koff [11] of 0.00015 s⁻¹ and a kon [11] of 1.37e+06 M⁻¹ s⁻¹.

B4: Clone 80 XT38 (mammalian-produced anti-PD-L1 AFFIMER® ILF dimer XT) (designed binder)
chain: MIPGGLSEAKPATPEIQEIVDKVKPQLEEKTGETYGKLEAVQYKTQVVRRKHFPQWPGTNYYIKVRAGDNKYMHLKVFKSLDLQPREVFQEDLVLTGYQVDKNKDDELTGFAEAAAKEAAAKEAAAKEAAAKEAAAKEAAAKMIPGGLSEAKPATPEIQEIVDKVKPQLEEKTGETYGKLEAVQYKTQVVRRKHFPQWPGTNYYIKVRAGDNKYMHLKVFKSLDLQPREVFQEDLVLTGYQVDKNKDDELTGFAEAAAKEAAAKEAAAKEAAAKEAAAKEAAAKMIPRGLSEAKPATPEIQEIVDKVKPQLEEKTNETYGKLEAVQYKTQVLANFFQRRWPGSTNYYIKVRAGDNKYMHLKVFNGPWKFRNTDRGADRVLTGYQVDKNKDDELTGF
notes: Same trimeric ILF format as Clone 80 XT35, expressed in HEK (Expi293F) cells
B4 gave a Kd [12] of 0.0864 nM, a koff [12] of 8.41e-05 s⁻¹ and a kon [12] of 974000 M⁻¹ s⁻¹. For the same binder, the koff [13] was 0.00641 s⁻¹, the kon [13] was 412000 M⁻¹ s⁻¹ and the Kd [14] was 15.5 nM. For the same binder, the EC50 [15] was 2.78 nM, the Kd [16] was 413 nM and the “IC50 of PD-1/PD-L1 blockade (% of inhibition, Promega NFAT-luciferase reporter cells)” value [17] was 57.9 nM. The EC50 [3] was 0.02 nM, the koff [18] was 0.0741 s⁻¹ and the kon [18] was 179000 M⁻¹ s⁻¹.
